From paper PMC2171753 (The Journal of Cell Biology, 2005)

B1: GST-EB1_(185-255) (domain or fragment, human, UniProt Q15691 185-255, looked up)
chain: GVGNGDDEAAELMQQVNVLKLTVEDLEKERDFYFGKLRNIELICQENEGENDPVLQRIVDILYATDEGFVI

How the values were obtained:
GST-EB1_(185-255) = biological target: B1; test: pull-down
GFP-APC_(2744-2843) = GFP-APC_(2744-2843) (human, UniProt P25054 2744-2843); test: pull-down
[1] = biological target: APC-GFP fusion construct, APC residues 2760–2831 (human, UniProt P25054 2760-2831); test: pull-down
[2] = biological target: APC-GFP fusion construct, APC residues 2739–2831 (human, UniProt P25054 2739-2831); test: pull-down
SEC = biological target: the molecule itself; test: SEC

GFP-APC_(2744-2843), sequence (P25054 2744-2843): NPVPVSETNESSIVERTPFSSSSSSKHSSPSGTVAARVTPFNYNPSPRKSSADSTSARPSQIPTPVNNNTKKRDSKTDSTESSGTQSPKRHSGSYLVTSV

| Binder | stoichiometry N (SEC) | other results |
| --- | --- | --- |
| TPFNYNPSPRKSSADSTSARPSQIPTPVNNNTKKRDSKTDSTESSGTQSP (domain or fragment, human, UniProt P25054 2782-2831, looked up) [APC-GFP fusion construct, APC residues 2782–2831] |  | binding result (GST-EB1_(185-255)): binds |
| B1 |  | binding result (GFP-APC_(2744-2843)): binds; binding result [1]: binds; binding result [2]: binds |
| full-length EB1 F216A (natural protein, human, UniProt Q15691 1-268, looked up) MAVNVYSTSVTSDNLSRHDMLAWINESLQLNLTKIEQLCSGAAYCQFMDMLFPGSIALKKVKFQAKLEHEYIQNFKILQAGFKRMGVDKIIPVDKLVKGKFQDNFEFVQWFKKFFDANYDGKDYDPVAARQGQETAVAPSLVAPALNKPKKPLTSSSAAPQRPISTQRTAAAPKAGPGVVRKNPGVGNGDDEAAELMQQVNVLKLTVEDLEKERDAYFGKLRNIELICQENEGENDPVLQRIVDILYATDEGFVIPDEGGPQEEQEEY | 2 |  |
| full-length EB1 Y217A (natural protein, human, UniProt Q15691 1-268, looked up) MAVNVYSTSVTSDNLSRHDMLAWINESLQLNLTKIEQLCSGAAYCQFMDMLFPGSIALKKVKFQAKLEHEYIQNFKILQAGFKRMGVDKIIPVDKLVKGKFQDNFEFVQWFKKFFDANYDGKDYDPVAARQGQETAVAPSLVAPALNKPKKPLTSSSAAPQRPISTQRTAAAPKAGPGVVRKNPGVGNGDDEAAELMQQVNVLKLTVEDLEKERDFAFGKLRNIELICQENEGENDPVLQRIVDILYATDEGFVIPDEGGPQEEQEEY | 2 |  |
| full-length EB1 K220A (natural protein, human, UniProt Q15691 1-268, looked up) MAVNVYSTSVTSDNLSRHDMLAWINESLQLNLTKIEQLCSGAAYCQFMDMLFPGSIALKKVKFQAKLEHEYIQNFKILQAGFKRMGVDKIIPVDKLVKGKFQDNFEFVQWFKKFFDANYDGKDYDPVAARQGQETAVAPSLVAPALNKPKKPLTSSSAAPQRPISTQRTAAAPKAGPGVVRKNPGVGNGDDEAAELMQQVNVLKLTVEDLEKERDFYFGALRNIELICQENEGENDPVLQRIVDILYATDEGFVIPDEGGPQEEQEEY | 2 |  |
| full-length EB1 F218A (natural protein, human, UniProt Q15691 1-268, looked up) MAVNVYSTSVTSDNLSRHDMLAWINESLQLNLTKIEQLCSGAAYCQFMDMLFPGSIALKKVKFQAKLEHEYIQNFKILQAGFKRMGVDKIIPVDKLVKGKFQDNFEFVQWFKKFFDANYDGKDYDPVAARQGQETAVAPSLVAPALNKPKKPLTSSSAAPQRPISTQRTAAAPKAGPGVVRKNPGVGNGDDEAAELMQQVNVLKLTVEDLEKERDFYAGKLRNIELICQENEGENDPVLQRIVDILYATDEGFVIPDEGGPQEEQEEY | 2 |  |
| full-length EB1 E225A (natural protein, human, UniProt Q15691 1-268, looked up) MAVNVYSTSVTSDNLSRHDMLAWINESLQLNLTKIEQLCSGAAYCQFMDMLFPGSIALKKVKFQAKLEHEYIQNFKILQAGFKRMGVDKIIPVDKLVKGKFQDNFEFVQWFKKFFDANYDGKDYDPVAARQGQETAVAPSLVAPALNKPKKPLTSSSAAPQRPISTQRTAAAPKAGPGVVRKNPGVGNGDDEAAELMQQVNVLKLTVEDLEKERDFYFGKLRNIALICQENEGENDPVLQRIVDILYATDEGFVIPDEGGPQEEQEEY | 2 |  |
